Source: US20090022738A1 (MICROMET, published 2009)

Columns and labels:
human CD3 [1] = target: T1, human CD3 (human, UniProt P07766 23-207; P04234 22-171; P09693 23-182); assay: FACS, culture supernatant on Jurkat cells; anti-His detection
T1 construct: whole, on cells; also called CD3 antigen; human CD3 complex
Protocol: (§1) 250000 Jurkat cells (for CD3 binding) and Kato cells (for EpCAM binding) were independently incubated with cell culture supernatants (50 μl) containing the bispecific construct (pEF-DHFR-3-1×anti-CD3 (VH5/VL2) (Nr.50, SEQ ID NO.: 48) and pEF-DHFR-5-10×anti-CD3 (VH5/VL2) (Nr.54) (SEQ ID NO.:62), respectively) for 45 min. at 4° C. Thereafter, the cells were washed twice in FACS buffer (phosphate-buffered saline containing 1% fetal calf serum (FCS) and 0.05% sodium azide) and incubated with mouse anti-His antibody (Dianova, DIA910) for 60 min. at 4° C. Washing steps were performed as above.
(§2) The cells were finally incubated either with goat anti-mouse Ig-FITC-conjugated antibody (BD 550003) or with anti-mouse IgG conjugated with PE (Sigma, P8547). After washing steps, 10000 events were analysed using FACS Calibur (B&D).

[2] = target: T2, Epithelial cell adhesion molecule (EpCAM) (human, UniProt P16422 24-314); assay: FACS, culture supernatant on Kato cells (for EpCAM binding); anti-His detection
T2 construct: whole, on cells; also called 17-1A antigen; KSA
T2 sequence (looked up): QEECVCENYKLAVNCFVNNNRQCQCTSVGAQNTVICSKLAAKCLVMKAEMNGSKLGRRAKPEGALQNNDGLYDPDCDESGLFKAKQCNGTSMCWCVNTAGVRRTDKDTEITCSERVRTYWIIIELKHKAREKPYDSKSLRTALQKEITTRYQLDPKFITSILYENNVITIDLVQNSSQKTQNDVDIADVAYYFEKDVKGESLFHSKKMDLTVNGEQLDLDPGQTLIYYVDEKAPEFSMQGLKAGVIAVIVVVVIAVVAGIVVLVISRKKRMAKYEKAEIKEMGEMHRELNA
Protocol: as §1, §2

CD19 [3] = target: T3, CD19 (human, UniProt P15391 20-556); assay: FACS, purified constructs at 1 and 5 µg/ml on CD19-positive NALM cells
T3 construct: whole, on cells; also called CD19 on NALM-6 cells
T3 sequence (looked up): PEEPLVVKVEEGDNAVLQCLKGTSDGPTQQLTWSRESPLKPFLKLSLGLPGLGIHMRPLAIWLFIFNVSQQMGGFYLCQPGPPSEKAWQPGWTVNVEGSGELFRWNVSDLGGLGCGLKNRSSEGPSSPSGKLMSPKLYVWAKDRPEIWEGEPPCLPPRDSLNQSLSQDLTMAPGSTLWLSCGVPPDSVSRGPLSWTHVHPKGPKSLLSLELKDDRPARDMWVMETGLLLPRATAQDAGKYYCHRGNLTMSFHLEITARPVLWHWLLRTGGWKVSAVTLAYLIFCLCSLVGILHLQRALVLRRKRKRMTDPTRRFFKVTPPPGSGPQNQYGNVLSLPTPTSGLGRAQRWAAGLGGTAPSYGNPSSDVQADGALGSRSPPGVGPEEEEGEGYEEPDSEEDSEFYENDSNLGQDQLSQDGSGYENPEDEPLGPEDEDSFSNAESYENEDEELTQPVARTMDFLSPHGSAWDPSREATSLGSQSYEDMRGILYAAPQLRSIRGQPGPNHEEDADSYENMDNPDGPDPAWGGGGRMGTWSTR
Protocol: Binding was measured by a FACS-based assay using CD3 enriched PBMCs (A) or CD19-positive NALM-cells (B). A secondary antibody with CD3 positive cells was used as a negative control in (A) and a secondary antibody with CD19 positive cells was used as a negative control in (B). Constructs anti-CD19×anti-CD3 and anti-EpCAM (M79)×anti-CD3 were used as controls. Assay was carried out with concentrations of 1 μg/ml and 5 μg/ml. MFI indicates mean fluorescence intensity.
(§3) In order to analyze the binding efficacy of the deimmunized constructs to CD3 and CD19 a FACS-based assay was performed. Initially, crude supernatants were tested for binding on CD3-enriched PBMCs or CD19-positive NALM-6 cells. Cells were incubated with non-diluted supernatants for 30 minutes at 8° C. Upon two wash steps the cells were labeled with an anti-His antibody (Qiagen) under the same conditions. After additional wash steps binding of the constructs was detected with a FITC-conjugated sheep anti-mouse antibody (Sigma). Cells were analyzed with a FACS Calibur cytometer (B&D). As controls supernatants of anti-CD19×anti-CD3 and GFP-transfected cells were included. […] The positive control, which was a non-deimmunized anti-CD19×anti-CD3 construct reached a MFI of around 60 showing that the deimmunized constructs comprising anti-CD3 (VH5/VL1) (SEQ ID NO.:190), anti-CD3 (VH5/VL2) (SEQ ID NO.:192), anti-CD3 (VH5/VL3) (SEQ ID NO.:194), anti-CD3 (VH7/VL1) (SEQ ID NO.:196), anti-CD3 (VH7/VL2) (SEQ ID NO.:198) and anti-CD3 (VH7/VL3) (SEQ ID NO.:200) bound CD3 with extremely high efficacy.

human CD3 [4] = target: T1, human CD3; assay: FACS, non-diluted crude supernatant on CD3-enriched PBMCs; anti-His + FITC anti-mouse
Protocol: as §3

CD19 [5] = target: T3, CD19; assay: FACS, crude supernatant on CD19-positive NALM-6 cells; negative control MFI ca. 3
Protocol: as §3
The FACS-based binding assay was also carried out for CD19. In this experiment CD19 and a secondary antibody was as a negative control. In this experiment, all assayed constructs achieved a MFI of at least 80 while the MFI of the negative control was ca. 3.

human CD3 [6] = target: T1, human CD3; assay: FACS, purified construct at 0.5 µg/ml as printed, on CD3 positive cells

B1: 5-10×anti-CD3 (VH5/VL2) (SEQ ID NO.:63) (bispecific antibody)
chain: ELVMTQSPSSLTVTAGEKVTMSCKSSQSLLNSGNQKNYLTWYQQKPGQPPKLLIYWASTRESGVPDRFTGSGSGTDFTLTISSVQAEDLAVYYCQNDYSYPLTFGAGTKLEIKGGGGSGGGGSGGGGSEVQLLEQSGAELVRPGTSVKISCKASGYAFTNYWLGWVKQRPGHGLEWIGDIFPGSGNIHYNEKFKGKATLTADKSSSTAYMQLSSLTFEDSAVYFCARLRNWDEPMDYWGQGTTVTVSSGGGGSDVQLVQSGAEVKKPGASVKVSCKASGYTFTRYTMHWVRQAPGQGLEWIGYINPSRGYTNYADSVKGRFTITTDKSTSTAYMELSSLRSEDTATYYCARYYDDHYCLDYWGQGTTVTVSSGEGTSTGSGGSGGSGGADDIVLTQSPATLSLSPGERATLSCRASQSVSYMNWYQQKPGKAPKRWIYDTSKVASGVPARFSGSGSGTDYSLTINSLEAEDAATYYCQQWSSNPLTFGGGTKVEIK
notes: Bispecific single chain with anti-EpCAM at the N-terminus; tested as CHO culture supernatant; detected by anti-His; also called pEF-DHFR-5-10×anti-CD3 (VH5/VL2); Nr.54
- binding result (human CD3 [1]): binds
- binding result [2]: binds

B2: anti-CD19×anti-CD3 (VH7/VL3) (SEQ ID NO.:200) (bispecific antibody)
chain: DIQLTQSPASLAVSLGQRATISCKASQSVDYDGDSYLNWYQQIPGQPPKLLIYDASNLVSGIPPRFSGSGSGTDFTLNIHPVEKVDAATYHCQQSTEDPWTFGGGTKLEIKGGGGSGGGGSGGGGSQVQLQQSGAELVRPGSSVKISCKASGYAFSSYWMNWVKQRPGQGLEWIGQIWPGDGDTNYNGKFKGKATLTADESSSTAYMQLSSLASEDSAVYFCARRETTTVGRYYYAMDYWGQGTTVTVSSGGGGSDVQLVQSGAEVKKPGASVKVSCKASGYTFTRYTMHWVRQAPGQGLEWIGYINPSRGYTNYNQKFKDRVTITTDKSTSTAYMELSSLRSEDTAVYYCARYYDDHYCLDYWGQGTTVTVSSGEGTSTGSGGSGGSGGADDIVLTQSPATLSLSPGERATLTCRASSSVSYMNWYQQKPGKAPKRWIYDTSKVASGVPARFSGSGSGTDYSLTINSLEAEDAATYYCQQWSSNPLTFGGGTKVEIK
notes: As m4: bispecific single chain, His-tagged; also called pEF anti-CD19×anti-CD3 (VH7/VL3); anti-CD3 (VH7/VK3)
- MFI (CD19 [3]): ~200 MFI
- MFI (human CD3 [4]): ≥ 90 MFI
- fold over the negative control (secondary antibody only, MFI ca. 3.5) (human CD3 [4]): ~25 fold
- MFI (CD19 [5]): ≥ 80 MFI
- MFI (human CD3 [6]): ≥ 40 MFI
